Data set [1] deals with T1, XYR1 DBD (Trichoderma reesei) (UniProt G0RLE8).
T1 sequence: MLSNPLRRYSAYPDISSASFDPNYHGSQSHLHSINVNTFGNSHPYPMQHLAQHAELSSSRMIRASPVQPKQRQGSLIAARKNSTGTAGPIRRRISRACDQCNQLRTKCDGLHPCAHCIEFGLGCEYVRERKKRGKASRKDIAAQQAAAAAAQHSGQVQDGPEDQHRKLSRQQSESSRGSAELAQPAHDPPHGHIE
Put plainly: EMSA. Conditions: EMSA: 10 mM Tris pH 7.5, 50 mM KCl, 1 mM DTT, 150 ng DNA, 20 C 30 min, 6% native PAGE at 4 C in 0.5x TBE, EtBr; footprinting: 180 ng DNA, 25 C 30 min. A general note: In EMSA bound probe runs differently from free probe, usually more slowly.

Data set [2] deals with T2, XTR1 DBD (Trichoderma reesei QM9414) (UniProt G0RH11).
T2 sequence: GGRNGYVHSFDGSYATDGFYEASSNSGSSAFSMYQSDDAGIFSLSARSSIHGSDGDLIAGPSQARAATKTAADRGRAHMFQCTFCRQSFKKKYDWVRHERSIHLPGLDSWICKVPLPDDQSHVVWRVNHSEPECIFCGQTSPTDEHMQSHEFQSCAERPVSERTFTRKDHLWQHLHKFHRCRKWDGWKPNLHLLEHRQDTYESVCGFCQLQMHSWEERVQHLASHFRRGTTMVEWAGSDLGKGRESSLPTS
As to the kind of experiment: EMSA. Conditions: EMSA: 10 mM Tris pH 7.5, 50 mM KCl, 1 mM DTT, 150 ng DNA, 20 C 30 min, 6% native PAGE at 4 C in 0.5x TBE, EtBr; footprinting: 180 ng DNA, 25 C 30 min.

Data set [3] deals with T3, XTR1 DBD (Trichoderma reesei QM9414, UniProt G0RH11 285-535).
T3 sequence: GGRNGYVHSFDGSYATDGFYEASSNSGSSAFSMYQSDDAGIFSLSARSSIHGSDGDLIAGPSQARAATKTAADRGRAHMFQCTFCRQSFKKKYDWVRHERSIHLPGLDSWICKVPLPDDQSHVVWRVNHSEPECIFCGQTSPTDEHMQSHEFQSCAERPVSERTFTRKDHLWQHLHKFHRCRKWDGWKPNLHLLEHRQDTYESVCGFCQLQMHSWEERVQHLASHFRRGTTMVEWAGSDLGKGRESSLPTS
Put plainly: EMSA; EMSA: 10 mM Tris pH 7.5, 50 mM KCl, 1 mM DTT, 150 ng DNA, 20 C 30 min, 6% native PAGE at 4 C in 0.5x TBE, EtBr; footprinting: 180 ng DNA, 25 C 30 min. Conditions: protein: recombinant; tags: His tag (pET22b NdeI/XhoI, Ni-NTA); label: none (EtBr stain).

Data set [4] deals with T3, XTR1 DBD. As to the kind of experiment: EMSA; binding increased vs wild type; EMSA: 10 mM Tris pH 7.5, 50 mM KCl, 1 mM DTT, 150 ng DNA, 20 C 30 min, 6% native PAGE at 4 C in 0.5x TBE, EtBr; footprinting: 180 ng DNA, 25 C 30 min. The following applies: protein: recombinant; tags: His tag (pET22b NdeI/XhoI, Ni-NTA); label: none (EtBr stain).

These results are taken from article PMC10612264, “A novel transcriptional repressor specifically regulates xylanase gene 1 in Trichoderma reesei”.

On to “AACTAGGACCGGCTTGTGTCGATATTGCGGGTGGCGTTCAATCTATTCCGGCACTCCTATGCCGTTTGATCCGATACCTGGAGGGCGTGCTTTAGGCAAAATGCC (double strand) [Pxyn1 (-321 to -217)]”, for which the binding entry in data set [1] and in data set [2] was “binds” throughout.

As to “AACTAGGACCGGCTTGTGTCGATATTGCGGGTGGCGTTCAATCTATTCCGGCACTCCTATGCCGTTTGATCCGATACCTGGAGGGCGTGCTTTAGGCAAAATGCCAAGCTTCGAGGATACTGTACGAGCCGCTTTCAACCTCACTTGATGATGTCTGAGTTTCATCAAGAGAATTGAAGTCAAAGCTCAAATCATGATGTGAAGAGGTTTTGAATGTGGAAGAATTCTGCATA (double strand) [Pxyn1 (-321 to -91)]”, in data set [2], the binding result was “binds”.

“AAGCTTCGAGGATACTGTACGAGCCGCTTTCAACCTCACTTGATGATGTCTGAGTTTCATCAAGAGAATTGAAGTCAAAGCTCAAATCATGATGTGAAGAGGTTTTGAATGTGGAAGAATTCTGCATA (double strand) [Pxyn1 (-217 to -91)]”: in data set [2], the binding entry is on record as “no binding”.

B1: Pxyn1 (-321 to -217) GG2-3 to AA (dsDNA)
DNA 1: AACTAGGACCGGCTTGTGTCGATATTGCGGGTGGCGTTCAATCTATTCCGGCACTCCTATGCCGTTTGATCCGATACCTAAAGGGCGTGCTTTAGGCAAAATGCC
DNA 2: GGCATTTTGCCTAAAGCACGCCCTTTAGGTATCGGATCAAACGGCATAGGAGTGCCGGAATAGATTGAACGCCACCCGCAATATCGACACAAGCCGGTCCTAGTT
Turning to B1, the binding result in data set [3] is “binds”.

B2: Pxyn1 (-321 to -217) 3' TTT to AAA (dsDNA)
DNA 1: AACTAGGACCGGCTTGTGTCGATATTGCGGGTGGCGTTCAATCTATTCCGGCACTCCTATGCCGTTTGATCCGATACCTGGAGGGCGTGCGGGAGGCAAAATGCC
DNA 2: GGCATTTTGCCTCCCGCACGCCCTCCAGGTATCGGATCAAACGGCATAGGAGTGCCGGAATAGATTGAACGCCACCCGCAATATCGACACAAGCCGGTCCTAGTT
Regarding B2, the binding result in data set [4] is “binds”.

B3: Pxyn1 (-321 to -217) GGG5-7 to AAA (dsDNA)
DNA 1: AACTAGGACCGGCTTGTGTCGATATTGCGGGTGGCGTTCAATCTATTCCGGCACTCCTATGCCGTTTGATCCGATACCTGGAAAACGTGCTTTAGGCAAAATGCC
DNA 2: GGCATTTTGCCTAAAGCACGTTTTCCAGGTATCGGATCAAACGGCATAGGAGTGCCGGAATAGATTGAACGCCACCCGCAATATCGACACAAGCCGGTCCTAGTT
Turning to B3, the binding result in data set [3] is “binds”.

B4: Pxyn1 (-321 to -217) CGTGC8-12 to TTGTT (dsDNA)
DNA 1: AACTAGGACCGGCTTGTGTCGATATTGCGGGTGGCGTTCAATCTATTCCGGCACTCCTATGCCGTTTGATCCGATACCTGGAGGGTTGTTTTTAGGCAAAATGCC
DNA 2: GGCATTTTGCCTAAAAACAACCCTCCAGGTATCGGATCAAACGGCATAGGAGTGCCGGAATAGATTGAACGCCACCCGCAATATCGACACAAGCCGGTCCTAGTT
Consider B4, for which the binding result in data set [3] is given as “no binding”.
